Experimental data: the RNAGym collection of RNA variant scans (doi:10.1073/pnas.2313332121)
Fewer inactive variants are shown than the library holds.

B1: TPR 5TU (parent)
chain: GGAUCUUCUCGAUCUAACAAAAAAGACAAAUCUGCCACAAAGCUUGAGAGCAUCUUCGGAUGCAGAGGCGGCAGCCUUCGGUGGCGCGAUAGCGCCAACGUUCUCAACUAUGACACGCAAAACGCGUGCUCCGUUGAAUGGAGUUUAUCAUG

Variants of: B1
Experiment: polymerase ribozyme fitness, log enrichment relative to wild type (log ratio); higher = more active; in vitro selection for triplet polymerase activity
Summary of the method: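 Libraries of mutants in each subunit of a heterodimeric triplet polymerase ribozyme were generated by PCR and transcribed. In triplicate, each went through one in vitro selection round: annealing with biotinylated primer, partner subunit and triplets; frozen incubation at −7 °C; gel excision of extended constructs; streptavidin-bead capture; RT-PCR. Fitness, taken from Illumina sequencing of input and output libraries, is the logarithm of a genotype's enrichment over wild-type enrichment, averaged across replicates with inverse-variance weights. The logarithm is base 2, and genotypes needed ≥10 input reads and ≥1 read per output to be kept.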

| Variant | polymerase ribozyme fitness (log ratio) |
| --- | --- |
| GGAUCUUCUCGAUCUAACAAAAAAGACAAAUCUGCCACAAACUUUGAGAGCAUCUUCGGAUGCAGAGGCGGCAGCCUUCGGUGGCGCGAUUGGGCCAACGUUCUCAACUAUGACACGCAAAACGCGUGCUCCGUUGAAUGGAGUUUAUCAUG | ≤ -4.2 |
| GGAUCUUCUCGAUCUAACAAAAAAGACAAAUCUGCCACAAACCUUGAGAGCAUCUUCGGAUGCAGAGGCGGCAGCCUUCGGUGGUGCGAUAGCGCCAACGUUCUCAACUAUGACACGCAAAACGCGUGCUCCGUUGAAUGGAGUUUAUCAUG | -3.97 |
| GGAUCUUCUCGAUCUAACAAAAAAGACAAAUCUGCCACAAACCUUGAGAGCAUCUUCGGAUGCAGAGGCGGCAGCCUUGGGUGGCGCGAUAGCGCCAACGUUCUCAACUAUGACACGCAAAACCCGUGCUCCGUUGAAUGGAGUUUAUCAUG | ≤ -4.2 |
| GGAUCUUCUCGAUCUAACAAAAAAGACAAAUCUGCCACAAACCUUGAGAGCAUGUUCGGAUGCAGAGGCGGCAGCCUUCGGUGGCGCGAUUGCGCCAACGUUCUCAACUAUGACACGCAAAACACGUGCUGCGUUGAAUGGAGUUUAUCAUG | ≤ -4.2 |
| GGAUCUUCUCGAUCUAACAAAAAAGACAAAUCUGCCACAAACCUUGAGAGCAUCUUCGGAUGCAGAGGCGGCAGCUUUCGGUGGUGCGGUAGCGCCAACGUUCCCAACUAUGACACGCAAAACGCGUGCUCCGUUGAAUGGAGUUUAUCAUG | ≤ -4.2 |
| GGAUCUUCUCGAUCUAACAAAAAAGACAAAUCUGCCACAAACCUUGAGAGCAUCUUCGGAUGCAGAGGCGGCAGCCUUCGGUGGCGCGAUAGCGCCAAUGUUCUCAACUAUGACACGCAAAACGCGUGCUCCGUUGAAUGGAGUUUAUCAUG | ≤ -4.2 |
| GGAUCUUCUCGAUCUAACAAAAAAGACAAAUCUGCCACAAACCUUAAGAGCAUCUUCGGAUGCAGAGCCGGCAGCCUUCGGUGGCGCGAUAGCGACAACGUUCUCUAGUAUGACACGCAAAACGCGUGCUCCGUUGAAUGGAGUUUAUCAUG | ≤ -4.2 |
| GGAUCUUCUCGAUCUAACAAAAAAGACAAAUCUGCCACAAACCUUGAGAGCAUCUUCGGAUGCAGAGGCGGCAGCCUUCGGUGGCGCGAUAGCGCCAACGUUCUGAACUAUGACACGCAAAACGCGUGCUCCGUUGAAUGGAGUUUAUCAUG | ≤ -4.2 |
| GGAUCUUCUCGAUCUAACAAAAAAGACAAAUCUGCCACAAACCUUGAGAGCAUCUUCGGAUUCCGAGGCGACAGCCUUGGGUGGCGCGAUAGCGCCAACGUUCUCAACUAUGACACGCAAAACGCGUGCUCGGUUGAAGGGAGUUGAUCAUG | ≤ -4.2 |
| GGAUCUUCUCGAUCUAACAAAAAAGACAAAUCUGCCACAAACGUUGAGAGCAUCUACGUAUGCAGAGGCGGCAGCCUUCGGUGGUGCGAUAGCGCCAACGUUCUCAACUAUGACACGCAAAACGAGCGCUCCGUUGAAUGGAGUUUAUCAUG | ≤ -4.2 |
| GGAUCUUCUCGAUCUAACAAAAAAGACAAAUCUGCCACAAACCUUGAGAGCAUCUUCGGAUGCAGAGGCGGUAGCCUUCGGUGGCGCGAUAGCGCCAACGUUCUCAACUAUGACACGCAAAACGCGUGCUCCGUUGAAUGGAGUUUAUCAUG | ≤ -4.2 |
| GGAUCUUCUCGAUCUAACAAAAAAGACAAAUCUGCCACAAACCUUGAGAGCAUCUUCGGAUGCAGAGGCGGCAGCCUUCGGUGGCGCGAUAGCGACAACGUUCUCAACUAUGACACGCAAAACGCGUGCUCCGUUGAAUGGAGUUUAUCAUG | ≤ -4.2 |
| GGAUCUUCUCGAUCUAACAAAAAAGACAAAUCUGCCACAAACCUUGAAAGCAUCUUCGGAUGCAGAGGCGGCAGCCUUCGGUGGCGCGAUAGCGCCAACGUUAUCAACUAUGACACGCAAAACGCGUGCUCCGUUGAAUGGAGCUUAUCAUG | ≤ -4.2 |
| GGAUCUUCUCGAUCUAACAAAAAAGACAAAUCUGCCACAAACCUUGAGAGCAUCUUCGGAUGCAGAGGCGGCAGCCUUCGGUGGCGCGAUAGCGCUAAUGUUCUCAACUAUGACACGCAAAACGCGUGCUCCGUUGAAUGGAGUUUAUCAUG | ≤ -4.2 |
| GGAUCUUCUCGAUCUAACAAAAAAGACAAAUCUGCCACAAACCUUGAGAGCAUCUUCGGUUGCAGAGGCGGCAGCCUUCGGUGGCGCGAUAUCGCCAACGUUCUCAACUAUGACACGCUAAACGAGUGCUCCGUUGAAUGGAGUUUAUCAUG | ≤ -4.2 |
| GGAUCUUCUCGAUCUAACAAAAAAGACAAAUCUGCCACAAACCUUGAGAGCAUCUUCGGAUGCAGAGGCGGCAGCCUUCGGUGGCGCGAUAGCGACAACGUUCUCAACUAUGACACGCAAAACGCGUGCUCCGUUGAAUGGCGUUUAUCAUG | ≤ -4.2 |
| GGAUCUUCUCGAUCUAACAAAAAAGACAAAUCUGCCACAAACCUUGAGAGCAUCUUCGGAUCCAGAGGCGGCCGCCUUCGGUGGCGCGAUAGCUCCAACGUUCUCAACUAUGACACGGAUAACGCGUGCUCCCUUGAAUGGAGUUUAUCAUG | ≤ -4.2 |
| GGAUCUUCUCGAUCUAACAAAAAAGACAAAUCUGCCACAAACCUUGAAAGCAUCUUCGGAUGCAGAGGCGGCAGGCUUCGGUGGCGCGAUAGCGCUAACGUUCACAACUAUGACACGCAAAACGCGUGCUCCGUUGAAUGGAGUUUAUCAUG | ≤ -4.2 |
| GGAUCUUCUCGAUCUAACAAAAAAGACAAAUCUGCCACAAACCUUGAGAGCAUCUUCGGUUGCAGACGCGGCAGCCUUCGGUGGCGCGAUAGCGCCAACGUUCUCAACUAUGACACGCAAAACGCGUUCUCCGUUGAUUGGAGUUUAUCAUG | ≤ -4.2 |
